# No end group written: not given here. *: point of attachment. 5FAM = O=C1OC2(c3ccc(O)cc3Oc3cc(O)ccc32)c2ccc(C(=O)*)cc21; TQ2 = quencher
# Tests used:
# [1] = molecular target: T1, MMP14 in the MDA-MB-231-derived extracellular vesicles (Homo sapiens, UniProt P50281); assay: Evaluation of MMP14 activity of MDA-MB-231-derived extracellular vesicles with 96-well plate; format: biochemical
# T1 construct: in terms of intact MMP14 with a molecular weight of 70 kDa
# Procedure: A relative fluorescence unit difference ΔRFU was calculated by subtracting the measured value of the sample for BG measurement from the measured value of each of the samples.
# The concentration of the solution is 41.7 μg/mL. The concentration of the solution was set to x1, and 2-fold serial dilution was performed to prepare standard samples with six concentrations.
# 50 μL of the MMP14 detection solution was added to 50 μL of each of the samples, a reaction was performed at 37° C., and MMP14 activity was evaluated.
# The concentration of the solution is 10 μg/mL.
# 50 μL of each of the MMP14 detection solutions was added to 50 μL of each of the samples, a reaction was performed at 37° C., and MMP14 activity was evaluated. […]
# The concentration of the solution is 20 μg/mL. The concentration of the solution was set to x1, and 3-fold serial dilution was performed to prepare standard samples with three concentrations.
# The concentration of the solution is 8 μg/mL.
# 50 μL of each of the MMP14 detection solutions was added to 50 μL of the sample, a reaction was performed at 37° C., and MMP14 activity was evaluated. […]
# 50 μL of the MMP14 detection solution was added to 50 μL of each of the samples, a reaction was performed at 30° C., and MMP14 activity was evaluated.
# The MMP14 activity of the extracellular vesicles was evaluated with a 96-well plate (137101). A fluorescence intensity was measured with a fluorescence plate reader (Synergy) at 30° C. every 5 minutes for 2 hours. For measurement wavelengths, an excitation wavelength of 545±20 nm and a fluorescence wavelength of 588±20 nm were used. A relative fluorescence unit difference (ΔRFU) was calculated by subtracting the measured value of the sample for BG measurement from the measured value of each of the samples.
# 50 μL of each of the MMP14 detection solutions was added to 50 μL of each of the samples, a reaction was performed at 30° C., and MMP14 activity was evaluated.
# [2] = molecular target: T1, MMP14 in the MDA-MB-231-derived extracellular vesicles; assay: Digital detection of MDA-MB-231-derived extracellular vesicles through MMP14 activity in wells (microcompartments); format: biochemical; settings: for Extracellular vesicle concentration: at a concentration of x1, 50 fL; for Expected value λ / Number of positives / Positive ratio: Example 38, EV 2.5 μg/mL, reporter 5 μM, 30° C.
# Procedure: The concentration of the solution is 6.7 μg/mL.
# 100 μL of the MMP14 detection solution was added to 100 μL of the sample to provide a reaction solution for wells. […] 100 μL of 200 μL of the prepared reaction solution for wells was used in the measurement of MMP14 activity with a 96-well plate.
# Next, the wells were filled with the reaction solution by leaving the well array 200 to stand under reduced pressure to degas the space 205. After that, the space 205 was fed with hydrophobic solvents to be sealed. Fluorinated oils AsahiKlin AE-3000 (manufactured by AGC Inc.) and Fomblin Y-25 (manufactured by Solvay S.A.) were used as the hydrophobic solvents. A fluorinated oil Simoa (trademark) SR-X Sealing Oil: 102767 (manufactured by Quanterix Corporation) was further used as another hydrophobic solvent.
# Well diameter: 4.25 μm Well depth: 3.25 μm Well capacity: 50 fL Number of wells in array: 239,000 Array range: 3 mm×4 mm
# The concentration of the solution is 20 μg/mL. […] The concentration of the solution was set to x1, and 10-fold serial dilution was performed to prepare standard samples with five concentrations.
# Next, the wells were filled with the reaction solution by leaving the well array 200 to stand under reduced pressure to degas the space 205. After that, the space 205 was fed with hydrophobic solvents to be sealed.
# The concentration of the solution is 20 μg/mL. […] The concentration of the solution was set to x1, and 3-fold serial dilution was performed to prepare standard samples with three concentrations.
# The concentration of the solution is 20 μg/mL. […] The concentration of the solution was set to x1, and 2-fold serial dilution was performed to prepare standard samples with four concentrations.
# The concentration of the solution is 5 μg/mL.
# 50 μL of the MMP14 detection solution was added to 50 μL of the sample to provide a reaction solution for wells.
# 50 μL of each of the MMP14 detection solutions was added to 50 μL of the sample to provide a reaction solution for wells.
# The concentration of the solution is 6.7 µg/mL.
# [3] = Example 37, EV 5 μg/mL, reporter 5 μM, buffer (4)
# [4] = MP, 1.25 μM with 5 μM Custom #2TF3
# [5] = MP, 2.5 μM with 2.5 μM Custom #2TF3
Substance,"Fluorescence change after 2 hours of reaction at 30° C. [1, 3]","Fluorescence change after 2 hours of reaction at 30° C. [1, 4]","Fluorescence change after 2 hours of reaction at 30° C. [1, 5]","Expected value λ (×1) ([2]; Example 38, 4 hr)","Extracellular vesicle concentration ([2]; Example 38, 4 hr) [mL⁻¹]","Expected value λ (×1) ([2]; Example 38, 24 hr)","Extracellular vesicle concentration ([2]; Example 38, 24 hr) [mL⁻¹]",Expected value λ ([2]; 4 hr),Number of positives ([2]; 4 hr),Positive ratio ([2]; 4 hr),Expected value λ ([2]; 24 hr),Number of positives ([2]; 24 hr),Positive ratio ([2]; 24 hr),"detection of MMP14 activity (fluorescence intensity increased with the reaction time) ([1]; Example 3, EV 5 μg/mL, reporter 10, 5 or 2.5 μM, 37° C., 2 hours)"
TQ2-YPPRPLLARK(5-FAM) (TQ2-YPPRPLLARK(5FAM)) [Custom #15],"16,774 ΔRFU","9,131 ΔRFU","10,890 ΔRFU",0.4993,9.986e+09,1.145,2.289e+10,0.1248,"3,295",0.1173,0.2862,"6,988",0.2489,
TQ2-FMPLGLRGIK(5-FAM) (TQ2-FMPLGLRGIK(5FAM)) [Custom #12],"32,801 ΔRFU","13,343 ΔRFU","19,102 ΔRFU",0.5189,1.0377e+10,1.232,2.464e+10,0.1297,"3,416",0.1216,0.308,"7,423",0.2651,
TQ2-WPHGSLQAAK(5-FAM) (TQ2-WPHGSLQAAK(5FAM)) [Custom #16],"4,424 ΔRFU",852 ΔRFU,"1,489 ΔRFU",0.06766,1.353e+09,0.3923,7.845e+09,0.01692,471,0.01677,0.09807,"2,623",0.09341,
TQ2-DLPAGLQARK(5-FAM) (TQ2-DLPAGLQARK(5FAM)) [Custom #14],"34,878 ΔRFU","9,504 ΔRFU","14,104 ΔRFU",0.9841,1.968e+10,1.5709,3.142e+10,0.246,"6,120",0.2181,0.3927,"9,120",0.3248,
MCA-Pro-Leu-Ala-Cys(p-OMeBz)-Trp-Ala-Arg(Dpa)-NH2 [MMP-14 Substrate I],,,,,,,,,,,,,,MMP14 activity was able to be detected

# — US20250290928A1, “METHOD, KIT AND DEVICE FOR DETECTING EXTRACELLULAR VESICLES” (priority 2022, published 2025)
